Measured values published in US20100095387A1, “METHODS AND REAGENTS FOR SCREENING NEW DRUGS AND FOR TREATING ION PUMP ASSOCIATED DISORDERS AND DISEASES” (priority 2005, published 2010).
Entries after “also recorded” stand apart in the source; their conditions may differ.

Tests used:
cortical neurons = experiment: c-fos induction, Fos in situ enzyme-linked immunoassay in cortical cultures; assay type: cell-based, mouse; conditions: C-AgΔ20 at 50 pM or 5 nM; C-Ag15 up to fivefold above saturation for C-Ag20z0/8
Method: Mouse cortical cultures were prepared from newborn or 1-d-old ICR strain mice (Harlan) as described previously (Hilgenberg et al., 1999). For the first 24 h after plating, cells were maintained in neural basal medium (NBM) plus B27 supplements (Invitrogen), and in nonneuronal cell-conditioned NBM (cNBM) plus B27 thereafter, at 37° C. in humidified 5% CO2 atmosphere. To further reduce proliferation of nonneuronal cells, cultures on glass coverslips used for histology were treated with 5 μM 5-fluoro-2-deoxyuridine (Sigma-Aldrich) 3-4 d after plating. Hippocampal and cerebellar cultures were prepared in a similar manner. Experiments were performed on 10-14-d-old cultures. Agrin-deficient neuron cultures were prepared from cortices of embryonic d 18-19 fetuses resulting from matings between mice heterozygous for a mutation in the agrin gene (Gautam et al., 1996). Cultures were prepared and genotyped as described previously (Li et al., 1999), and were maintained as above.
Fos expression in cortical cultures was measured by in situ enzyme-linked immunoassay (Hilgenberg et al., 1999). In brief, 11-14-d-old neuronal cultures were treated for 10 min with agrin or other agent diluted in NBM or PBS, then washed in cNBM and returned to the incubator for 2 h. […] The level of Fos expression was determined by monitoring conversion of p-nitrophenyl phosphate to a soluble yellow reaction product at 405 nm.

[1] = target: T1, α3 subunit of the Na+/K+-ATPase (Mus musculus, UniProt Q6PIC6); experiment: Chemical cross-linking of agrin fragments to cortical neurons, immunoprecipitation and immunoblot; assay type: binding
T1 construct: a 110 kDa band characteristic of the native α3Na+/K+-ATPase; endogenous in cells; host or cells: primary mouse cortical neurons, 10-16 days in culture
Method: Membrane impermeant chemical cross-linking agents BS^3 and DMA were used to stabilize the bond between agrin and its binding sites on cell surface membranes. Cultured neurons were washed briefly in PBS containing 10 mM EDTA followed by preincubation with one or more agrin fragment in PBS^2+ for 30 minutes at room temperature and then cooled on ice prior to addition of a 10× solution of cross-linking agent to a final concentration of 0.1 mM. The cross-linking reaction was allowed to proceed for 30 minutes after which any unreacted cross-linker was quenched and removed by washing with ice cold PBS^2+ containing 50 mM ethanolamine. For immunoblot analysis, cells were scraped into ice-cold TI buffer (20 mM Tris, pH 7.4; 10 mM EDTA; protease inhibitors (Sigma, P8340)) then Dounce homogenized and membrane fraction recovered by centrifugation. For the immunoprecipitation studies, cells were scraped and homogenized in TI buffer containing 150 mM NaCl and 0.5% Triton X-100. Cell extracts were cleared by centrifugation and aliquots of the detergent soluble fraction incubated with the appropriate antibody at 4° C. overnight. Antigen-antibody complexes were precipitated with either protein A or protein G and resuspended in SDS-PAGE sample buffer for immunoblot analysis.
Ligand induced phosphorylation is a common first step in membrane receptor activation and inhibition of tyrosine kinase activity blocks agrin signalling in central nervous system neurons. To determine if agrin induced phosphorylation of the putative agrin receptor, membranes from neurons cross-linked to C-Ag208 or C-Ag15, alone or in combination, were dissolved, in a detergent-containing buffer and aliquots immunoprecipitated with RAg1 or the phosphotyrosine antibody mAb4G10 (Upstate). Immunoprecipitated proteins were analyzed by immunoblotting with a monoclonal antibody (9E10.2, Invitrogen) against the COON-terminal myc tag on the agrin fragments.
To confirm the results of the mass spectrometry the ability of different α-subunit antibodies to recognize the putative agrin-Na^+/K^+-ATPase complex was tested. […]

α3Na+/K+-ATPase [2] = target: T2, α3Na+/K+-ATPase (Mus musculus, UniProt Q6PIC6); experiment: Whole cell current clamp of cultured cortical neurons, channel blockers present; assay type: cell-based
[3] = test system: layer V neurons in acute cortical slices; experiment: Whole cell current clamp of layer V neurons in acute cortical slices; assay type: cell-based, mouse
α3Na+/K+-ATPase [4] = target: T2, α3Na+/K+-ATPase; experiment: Na+ imaging (SBFI-AM) of cultured cortical cells; assay type: cell-based
chick myotubes = experiment: AChR clustering assay; assay type: cell-based; conditions: 1 nM C-Ag15 with 50 pM C-Ag95z8 overnight
cardiac myocytes = experiment: Ca2+ (Fura-2) and Na+ imaging of cultured cardiac myocytes; conditions: 10 fold excess of C-Ag15

B1: C-Ag15: 15-kD COOH-terminal fragment of agrin created by deleting 37 amino acids from the NH2 terminus of C-Ag20, SEQ. ID NO. 3 (protein)
chain: MDPWIGKAAERADYMALAIVDGHLQLSYDLASQPVVLRSTVKVNTNRWLRVRAHREHREGSLQVGNEAPVTSSSPLGATQLDTDGALWLGGLQKLPVGQPLPKAYGTGFVGCLRNVVGHRQLHLLEDAVTKPELRPCPTLNSKLGPEQKLISEEDLNSAVDHHHHHH
modifications: Synthetically produced sequence
Cortical neurons
  effect of fragment alone on Fos expression: no effect
[1]; cross-linked in combination with C-Ag208
  effect on C-Ag208 binding and phosphorylation: blocking both binding and phosphorylation
[1]; immunoprecipitation with phosphotyrosine antibody mAb4G10
  tyrosine phosphorylation of the cross-linked complex: did not induce phosphorylation
α3Na+/K+-ATPase [2]
  change in membrane potential: −1.0±0.4 mV
  effect on depolarization induced by active agrin fragments: effective in blocking depolarization
  effect on ouabain induced membrane depolarization: blocked
[3]; in kainic acid
  time to repolarization after addition: ≤ 10 min
[3]; kainic acid 0.5 μM + C-Ag15
  membrane potential: −66.3±1.8 mV
[3]; kainic acid plus C-Ag15
  action potential frequency: 0.01±0.005 Hz
[3]; slices
  effect on response to C-Ag200: blocked
[3]; two spontaneously active neurons
  spontaneous action potentials: reversibly inhibited
α3Na+/K+-ATPase [4]
  effect on Na+ increase induced by active agrin fragments: blocked
  effect on ouabain-induced increase in neuronal Na+: blocked; also recorded: significantly reduced
  neuronal intracellular Na+: no significant effect
Chick myotubes
  effect on AChR clustering activity of C-Ag95z8: no effect
Cardiac myocytes
  antagonism of C-Ag208 response: effective agrin antagonist; also recorded: effectively blocks
